Consider eight proteins from FireProtDB.

“And” between values parts separate entries of the source, which are not always exact repeats. Identical values can stand only once.

The conditions of the data set: whole UniProt chain shown; for unfolding free energy / denaturant m value / denaturant midpoint (higher = more stable): GdnHCl.
Where [1] appears, read: Saccharomyces cerevisiae (strain ATCC 204508 / S288c), pH 6, 20 °C, Fluorescence, Sodium phosphate 0.1 M, reversible: yes.
Setting [2] is: Saccharomyces cerevisiae (strain ATCC 204508 / S288c), pH 6, Thermal, DSC, Sodium phosphate 0.1 M, KCl 0.05 M, reversible: yes (70-80%).
Where [3] appears, read: Saccharomyces cerevisiae (strain ATCC 204508 / S288c), pH 7.2, 20 °C, Fluorescence, Sodium phosphate 0.1 M.
Setting [4] is: Rattus norvegicus, pH 7.5, Thermal, Fluorescence, TEA 50 mM, transition: 3.
[5] abbreviates: Ovis aries, pH 7, 25 °C, CD, HEPES 20 mM, reversible: yes.
The mark [6] stands for this setting: Ovis aries, pH 7, 25 °C, Fluorescence, HEPES 20 mM, reversible: yes.
Setting [7] is: Locusta migratoria, pH 7, 25 °C, CD, Sodium phosphate 50 mM, KCl 100 mM, reversible: yes.
Setting [8] is: Lithobates pipiens, pH 6, 25 °C, DSC, MES 100 mM, reversible: yes.

B1: Cytochrome c mitochondrial import factor CYC2 wild type, P38909 (protein)
chain: MLWKNYVLSSSRITRRLHKSPRKSSFSKNFFITGCLLTVGAVSSYLTYRYTSERENKHELSPSYFVKYKISHKRDIDSSHFLLEVTPLFKQKVNIWSLMTAENLWSVEIKQPEVMVVRNYTPLPLKFNPASKEIEILKDGDNADGKLSFYIKKYENGEVARWLHHLPKGHIIEIRGPFIDYEFPHLPNELKRSRDCLYMDNRNERGNNVRENSQFIYQPYDIMMFTAGTGIVTALQLLLTESPFRGTIKLFHTDKNIKQLGPLYPILLRLQASNRVQLKIFETDRQTKQDVLKSIQKSITKPYPYKGLLPFSNVNNKNIMPVLALVCGPESYISSISGRKYDLNQGPVGGLLSKEGWNSDNVYKLS
On to B1, for which the unfolding free energy (Saccharomyces cerevisiae (strain ATCC 204508 / S288c), pH 6, 20 °C, DSC, Sodium phosphate 0.1 M, reversible: yes) came to 4.2 kcal/mol. Also, under setting [1], the denaturant m value came to 3.2 kcal/mol/M, the “denaturant midpoint (higher = more stable)” value (“denaturant midpoint” below) is 1.5 M and the unfolding free energy turned out to be 4.9 kcal/mol. For the same protein, for the setting “Saccharomyces cerevisiae (strain ATCC 204508 / S288c), pH 6, 20 °C, Fluorescence, Sodium phosphate 0.1 M”, the unfolding free energy worked out at 3.8 kcal/mol. Under setting [2], the Tm was found to be 79.4 °C, the “unfolding enthalpy (calorimetric)” value was found to be 113 kcal/mol and the “unfolding enthalpy (van 't Hoff)” value is 140 kcal/mol. Under setting [3], the “denaturant midpoint” value was determined as 1.49 M and the unfolding free energy came to 3.8 kcal/mol.

B2: T-cell surface antigen CD2 wild type, P08921 (protein)
chain: MRCKFLGSFFLLFSLSSKGADCRDSGTVWGALGHGINLNIPNFQMTDDIDEVRWERGSTLVAEFKRKMKPFLKSGAFEILANGDLKIKNLTRDDSGTYNVTVYSTNGTRILNKALDLRILEMVSKPMIYWECSNATLTCEVLEGTDVELKLYQGKEHLRSLRQKTMSYQWTNLRAPFKCKAVNRVSQESEMEVVNCPEKGLPLYLIVGVSAGGLLLVFFGALFIFCICKRKKRNRRRKGEELEIKASRMSTVERGPKPHSTQASAPASQNPVASQAPPPPGHHLQTPGHRPLPPSHRNREHQPKKRPPPSGTQVHQQKGPPLPRPRVQPKPPCGSGDVSLPPPN
As to B2, under setting [4], the Tm was 24.9 °C; the “heat capacity change of unfolding” value was 0.5 kcal/mol/K and 0.98 kcal/mol/K; the “unfolding enthalpy (van 't Hoff)” value is 14.5 kcal/mol.

B3: wild type, Q88HV5 (protein)
chain: MPFQQGLLATPVPAHARHLFFTLQSPEALPAALDALLPQVDGKQLLLGVGAPLAKALGREIPGLRPFPLLDAAVENPSTQHALWLWLRGDERGDLLLRTQALEQALAPALSLADSVDGFLHRGGHDLTGYEDGTENPTDEEAVQAAIAADGSSFAAFQLWKHDLQYFKSLPQADQDNIIGRRLSDNEELDDAPASAHVKRTAQESFEPEAFMVRRSVSWADQRGAGLAFVALGKSFEAFEVQLRRMSGLEDGIIDGLYRFSRPLTGGYYWCPPMSETGVDLSPLLRA
Take B3: the Tm (Pseudomonas putida (strain ATCC 47054 / DSM 6125 / CFBP 8728 / NCIMB 11950 / KT2440), pH 7.6, Fluorescence spectroscopy) turned out to be 65 °C.

B4: Pyridoxal kinase wild type, P82197 (protein)
chain: MEEECRVLSIQSHVVRGYVGNRAATFPLQVLGFEVDAVNSVQFSNHTGYSHWKGQVLNSDELQELYDGLKLNHVNQYDYVLTGYTRDKSFLAMVVDIVQELKQQNPRLVYVCDPVMGDQRNGEGAMYVPDDLLPVYREKVVPVADIITPNQFEAELLTGRKIHSQEEALEVMDMLHSMGPDTVVITSSNLLSPRGSDYLMALGSQRTRAPDGSVVTQRIRMEMHKVDAVFVGTGDLFAAMLLAWTHKHPNNLKVACEKTVSAMHHVLQRTIKCAKAKSGEGVKPSPAQLELRMVQSKKDIESPEIVVQATVL
B4: under setting [5], the denaturant m value was 2.41 kcal/mol/M and the unfolding free energy worked out at 1.55 kcal/mol. Moreover, under setting [6], the denaturant m value came to 2.9 kcal/mol/M and the unfolding free energy is 1.5 kcal/mol.

B5: Apolipophorin-3b wild type, P10762 (protein)
chain: MNTLLAVLMLAVAAQARPDAAGHVNIAEAVQQLNHTIVNAAHELHETLGLPTPDEALNLLTEQANAFKTKIAEVTTSLKQEAEKHQGSVAEQLNRFARNLNNSIHDAATSAQPADQLNSLQSALTNVGHQWQTSQPRPSVAQEAWAPVQSALQEAAEKTKEAAANLQNSIQSAVQKPAN
As to B5, under setting [7], the denaturant m value was 3.46 kcal/mol/M and 4.33 kcal/mol/M; the “denaturant midpoint” value was 0.6 M and 0.27 M.

B6: Amicyanin wild type, P22364 (protein)
chain: MISATKIRSCLAACVLAAFGATGALADKATIPSESPFAAAEVADGAIVVDIAKMKYETPELHVKVGDTVTWINREAMPHNVHFVAGVLGEAALKGPMMKKEQAYSLTFTEAGTYDYHCTPHPFMRGKVVVE
With B6, the Tm reads like this: (Paracoccus denitrificans, pH 7.5, Thermal, CD, Potassium Phosphate Buffer 100 mM) 60 °C and 55 °C; (Paracoccus denitrificans, pH 7.5, Thermal, absorbance, Potassium Phosphate Buffer 10 mM) 66.4 °C.

B7: Cyanovirin-N wild type, P81180 (protein)
chain: LGKFSQTCYNSAIQGSVLTSTCERTNGGYNTSSIDLNSVIENVDGSLKWQPSNFIETCRNTQLAGSSELAAECKTRAQQFVSTKINLDDHIANIDGTLKYE
Take B7: for the setting “Nostoc ellipsosporum, pH 6, Thermal, CD, Sodium phosphate 10 mM”, the Tm came to 48.5 °C.

B8: Protein P-30 wild type, P22069 (protein)
chain: QDWLTFQKKHITNTRDVDCDNIMSTNLFHCKDKNTFIYSRPEPVKAICKGIIASKNVLTTSEFYLSDCNVTSRPCKYKLKKSTNKFCVTCENQAPVHFVGVGSC
For B8, under setting [8], the denaturant m value is 3.08 kcal/mol/M, the “denaturant midpoint” value is 4.5 M and the unfolding free energy came to 13.9 kcal/mol.
